Measurements published in article PMC5006282.

How the values were obtained:
Assay in all cases: pull-down MS
Settings in all cases: 5' biotin on sense strand; DNA immobilised on streptavidin beads in 20 mM Tris-HCl pH 8.0, 200 mM NaCl, 0.5 mM EDTA, 0.03% NP40; protein binding buffer and temperature not in the …
[1] = molecular target: Aiolos (Homo sapiens (Raji)) (UniProt Q9UKT9)
[2] = molecular target: HCF-1 (Homo sapiens (Raji, Molt4)) (UniProt P51610)
[3] = molecular target: Helios (Homo sapiens (Raji)) (UniProt Q9UKS7)
[4] = molecular target: Ikaros (Homo sapiens (Raji, Molt4 nuclear extract)) (UniProt Q13422)
[5] = molecular target: NFKB2 (NF-kappa B p100/p52) (Homo sapiens (Raji)) (UniProt Q00653)
Sequence of UniProt Q00653 (Q00653 whole entry): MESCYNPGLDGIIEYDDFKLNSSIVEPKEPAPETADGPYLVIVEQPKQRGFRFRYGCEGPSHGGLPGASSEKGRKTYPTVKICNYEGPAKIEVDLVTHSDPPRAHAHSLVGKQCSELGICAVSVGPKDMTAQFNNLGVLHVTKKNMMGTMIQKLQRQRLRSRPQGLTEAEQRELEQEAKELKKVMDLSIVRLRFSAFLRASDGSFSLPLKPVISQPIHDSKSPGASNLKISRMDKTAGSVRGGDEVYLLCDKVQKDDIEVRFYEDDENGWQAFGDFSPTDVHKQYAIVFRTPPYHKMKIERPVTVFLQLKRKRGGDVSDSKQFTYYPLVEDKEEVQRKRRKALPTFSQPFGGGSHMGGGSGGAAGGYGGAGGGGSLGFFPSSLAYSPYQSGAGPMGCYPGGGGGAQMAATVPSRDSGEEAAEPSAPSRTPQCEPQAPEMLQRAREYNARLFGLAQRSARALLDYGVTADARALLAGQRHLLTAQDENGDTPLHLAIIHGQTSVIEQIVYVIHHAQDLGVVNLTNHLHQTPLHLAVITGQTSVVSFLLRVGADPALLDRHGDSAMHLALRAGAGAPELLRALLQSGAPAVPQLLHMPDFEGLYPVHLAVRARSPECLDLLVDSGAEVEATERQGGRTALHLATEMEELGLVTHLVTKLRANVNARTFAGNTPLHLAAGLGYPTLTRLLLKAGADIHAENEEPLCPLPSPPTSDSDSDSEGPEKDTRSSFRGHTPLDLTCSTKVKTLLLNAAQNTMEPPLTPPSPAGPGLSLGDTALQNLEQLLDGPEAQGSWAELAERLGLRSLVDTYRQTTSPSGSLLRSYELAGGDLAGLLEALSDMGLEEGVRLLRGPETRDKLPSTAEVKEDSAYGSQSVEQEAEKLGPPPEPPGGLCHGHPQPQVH

Sequence of UniProt P51610 (P51610 whole entry): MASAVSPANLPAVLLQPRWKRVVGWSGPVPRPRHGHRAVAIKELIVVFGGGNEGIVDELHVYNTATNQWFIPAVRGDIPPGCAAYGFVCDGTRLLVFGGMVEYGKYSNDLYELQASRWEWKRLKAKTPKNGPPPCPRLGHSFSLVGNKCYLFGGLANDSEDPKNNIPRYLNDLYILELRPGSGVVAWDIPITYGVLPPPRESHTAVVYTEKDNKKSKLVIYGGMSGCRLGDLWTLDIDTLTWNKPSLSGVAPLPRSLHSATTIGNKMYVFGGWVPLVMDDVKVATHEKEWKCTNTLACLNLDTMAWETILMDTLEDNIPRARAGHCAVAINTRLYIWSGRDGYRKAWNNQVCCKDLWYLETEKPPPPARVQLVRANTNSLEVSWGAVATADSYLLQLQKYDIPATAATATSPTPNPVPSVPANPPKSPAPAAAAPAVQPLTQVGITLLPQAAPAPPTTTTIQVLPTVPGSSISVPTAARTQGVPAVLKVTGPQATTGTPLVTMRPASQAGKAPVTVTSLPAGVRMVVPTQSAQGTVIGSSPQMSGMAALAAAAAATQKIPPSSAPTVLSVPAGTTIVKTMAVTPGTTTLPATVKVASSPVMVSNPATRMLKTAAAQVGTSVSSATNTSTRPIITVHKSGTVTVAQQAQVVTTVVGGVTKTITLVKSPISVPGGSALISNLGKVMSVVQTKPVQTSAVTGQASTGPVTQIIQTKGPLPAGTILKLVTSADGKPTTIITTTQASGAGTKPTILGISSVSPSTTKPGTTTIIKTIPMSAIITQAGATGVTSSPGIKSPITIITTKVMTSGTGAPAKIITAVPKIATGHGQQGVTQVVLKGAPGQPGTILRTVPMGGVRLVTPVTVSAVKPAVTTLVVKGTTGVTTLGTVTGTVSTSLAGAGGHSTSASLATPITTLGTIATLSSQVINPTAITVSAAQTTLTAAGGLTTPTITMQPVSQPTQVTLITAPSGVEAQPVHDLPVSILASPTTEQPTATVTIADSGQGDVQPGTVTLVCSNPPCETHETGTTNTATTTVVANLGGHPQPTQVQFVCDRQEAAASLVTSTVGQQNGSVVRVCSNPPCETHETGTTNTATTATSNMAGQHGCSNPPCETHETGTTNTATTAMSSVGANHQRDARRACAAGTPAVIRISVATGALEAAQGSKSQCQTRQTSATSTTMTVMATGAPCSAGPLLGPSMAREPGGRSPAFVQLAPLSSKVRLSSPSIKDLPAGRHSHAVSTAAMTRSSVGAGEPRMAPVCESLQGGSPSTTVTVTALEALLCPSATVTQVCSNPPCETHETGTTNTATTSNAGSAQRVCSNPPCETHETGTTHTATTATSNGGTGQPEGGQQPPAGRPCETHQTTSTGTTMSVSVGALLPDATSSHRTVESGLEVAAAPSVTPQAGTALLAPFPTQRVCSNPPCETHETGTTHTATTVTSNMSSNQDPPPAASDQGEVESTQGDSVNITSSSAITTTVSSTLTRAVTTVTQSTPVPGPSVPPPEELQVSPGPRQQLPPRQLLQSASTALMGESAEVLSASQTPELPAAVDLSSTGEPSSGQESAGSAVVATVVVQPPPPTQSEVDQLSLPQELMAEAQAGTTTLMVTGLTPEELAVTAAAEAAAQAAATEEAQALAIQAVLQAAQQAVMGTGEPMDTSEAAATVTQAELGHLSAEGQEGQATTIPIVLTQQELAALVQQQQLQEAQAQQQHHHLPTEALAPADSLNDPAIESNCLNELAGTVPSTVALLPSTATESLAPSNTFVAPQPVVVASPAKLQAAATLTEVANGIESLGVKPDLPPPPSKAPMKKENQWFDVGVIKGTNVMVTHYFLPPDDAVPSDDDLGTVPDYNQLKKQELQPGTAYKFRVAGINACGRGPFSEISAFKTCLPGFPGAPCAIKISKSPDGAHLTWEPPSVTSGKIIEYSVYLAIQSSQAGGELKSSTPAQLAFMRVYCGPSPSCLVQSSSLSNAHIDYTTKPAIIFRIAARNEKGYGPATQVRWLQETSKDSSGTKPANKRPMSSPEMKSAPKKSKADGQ
Sequence of UniProt Q9UKT9 (Q9UKT9 whole entry): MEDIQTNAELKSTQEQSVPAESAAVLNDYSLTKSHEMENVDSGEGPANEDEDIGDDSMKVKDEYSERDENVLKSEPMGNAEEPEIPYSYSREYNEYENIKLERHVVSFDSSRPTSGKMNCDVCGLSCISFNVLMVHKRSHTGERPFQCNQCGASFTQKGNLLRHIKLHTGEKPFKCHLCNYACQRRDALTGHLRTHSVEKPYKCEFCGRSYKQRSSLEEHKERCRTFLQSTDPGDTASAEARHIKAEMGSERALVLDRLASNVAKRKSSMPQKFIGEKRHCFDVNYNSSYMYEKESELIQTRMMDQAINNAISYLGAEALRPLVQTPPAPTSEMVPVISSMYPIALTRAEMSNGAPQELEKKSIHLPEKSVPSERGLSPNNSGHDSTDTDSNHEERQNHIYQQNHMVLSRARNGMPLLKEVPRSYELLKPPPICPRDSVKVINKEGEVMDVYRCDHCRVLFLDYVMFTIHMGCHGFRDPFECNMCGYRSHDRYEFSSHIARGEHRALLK
Sequence of UniProt Q13422 (Q13422 whole entry): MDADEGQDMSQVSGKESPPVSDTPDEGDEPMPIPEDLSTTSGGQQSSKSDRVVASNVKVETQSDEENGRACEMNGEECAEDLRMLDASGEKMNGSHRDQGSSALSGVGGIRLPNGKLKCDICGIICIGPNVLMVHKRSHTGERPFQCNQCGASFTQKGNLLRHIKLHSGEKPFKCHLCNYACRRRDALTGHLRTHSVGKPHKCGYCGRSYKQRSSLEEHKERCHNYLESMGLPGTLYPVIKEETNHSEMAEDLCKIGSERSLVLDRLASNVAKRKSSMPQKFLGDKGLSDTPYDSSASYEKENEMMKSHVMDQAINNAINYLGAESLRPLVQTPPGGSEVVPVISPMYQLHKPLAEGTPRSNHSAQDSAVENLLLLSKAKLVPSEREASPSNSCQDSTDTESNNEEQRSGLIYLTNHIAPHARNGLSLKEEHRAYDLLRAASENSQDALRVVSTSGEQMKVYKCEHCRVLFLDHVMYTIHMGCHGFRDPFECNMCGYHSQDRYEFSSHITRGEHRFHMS
Sequence of UniProt Q9UKS7 (Q9UKS7 whole entry): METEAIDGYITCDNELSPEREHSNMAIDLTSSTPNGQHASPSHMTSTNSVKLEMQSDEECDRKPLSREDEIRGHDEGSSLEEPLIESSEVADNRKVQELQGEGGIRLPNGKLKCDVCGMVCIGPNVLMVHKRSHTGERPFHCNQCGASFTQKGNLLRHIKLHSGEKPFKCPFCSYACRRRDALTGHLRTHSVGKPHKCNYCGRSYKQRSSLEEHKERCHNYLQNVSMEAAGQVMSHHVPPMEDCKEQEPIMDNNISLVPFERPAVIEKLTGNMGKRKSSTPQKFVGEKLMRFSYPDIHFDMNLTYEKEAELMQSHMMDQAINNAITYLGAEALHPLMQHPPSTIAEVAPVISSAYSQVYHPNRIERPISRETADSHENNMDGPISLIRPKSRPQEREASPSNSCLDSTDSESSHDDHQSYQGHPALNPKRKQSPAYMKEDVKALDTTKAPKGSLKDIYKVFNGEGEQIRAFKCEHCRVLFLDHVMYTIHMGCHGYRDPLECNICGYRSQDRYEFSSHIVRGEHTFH

Sequence: CAAAACTGCAGGCAACTAGAACTACATTTCCCGGCGTGATTTGCTGCGGAACGAACTACATCTCCCGGCAGGCTGCG (double strand) [Tandem M4 WT]
- binding signal (SILAC ratio WT/MT) [1]: > 100
- binding signal (SILAC ratio WT/MT) [2]: 19
- binding signal (SILAC ratio WT/MT) [3]: > 100
- binding signal (SILAC ratio WT/MT) [4]: > 100
- binding signal (SILAC ratio WT/MT) [5]: 31.8
